Experimental data: PMC9067375, “Biochemical and crystallization analysis of the CENP-SX–DNA complex” (Acta Crystallographica. Section F, Structural Biology …, 2022)

Biological target: T1, CENP-S (MHF1), chicken, full-length (Gallus gallus)
T1 construct: CENP-S (MHF1), Gallus gallus, from cDNA; called full-length CENP-S; source: E. coli One Shot BL21(DE3) pLysS RARE2; prepared according to previous reports
T1 chain: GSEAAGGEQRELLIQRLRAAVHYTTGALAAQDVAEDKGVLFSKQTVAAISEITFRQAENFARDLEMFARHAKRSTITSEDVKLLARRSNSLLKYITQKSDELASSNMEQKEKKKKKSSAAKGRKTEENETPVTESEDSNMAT
Assay: SDS-PAGE of the contents of crystals; crystals grown from the FANCM–CENP-SX pentamer (50 µM) with dsDNA in about 30% 1,4-dioxane, 293 K; crystals, solution and film analysed by 15% SDS–PAGE, Coomassie Brilliant Blue
Details: both partners purified

- binding result: binds
B1: CENP-X (MHF2), chicken (natural protein, Gallus gallus)
chain: GYEEREGGFRKETVERLLRLHFRDGRTRVNGDALLLMAELLKVFVREAAARAARQAQAEDLEKVDIEHVEKVLPQLLLDFV
notes: CENP-X (MHF2), Gallus gallus, from cDNA; source: E. coli One Shot BL21(DE3) pLysS RARE2; prepared according to previous reports
